Here are results for ten proteins from US20120100582A1 (DSM IP ASSETS B V, published 2012).

Positions count from the first letter of the chain named. Names may count otherwise.

B1: APLE L43D variant (enzyme)
chain: GQPASPPVVDTAQGRVLGKYVSLEGLAQPVAVFLGVPFAKPPDGSLRFAPPQPAEPWSFVKNTTSYPPMCCQEPIGGQMLSDLFTNRKERLIPEFSEDCLYLNIYTPADLTKRGRLPVMVWIHGGGLVVGGASTYDGLALAAHENVVVVAIQYRLGIWGFFSTGDEHSRGNWGHLDQVAALHWVQENIANFGGDPGSVTIFGESAGGESVSVLVLSPLAKNLFHRAISESGVAFTAGLVRKDMKAAAKQIAVLAGCKTTTSAVFVHCLRQKSEDELLDLTLKMKFFALDLHGDPRESHPFLTTVVDGVLLPKMPEEILAEKDFNTVPYIVGINKQEFGWLLPTMMGFPLSEGKLDQKTATSLLWKSYPIANIPEELTPVATDKYLGGTDDPVKKKDLFLDLMGDVVFGVPSVTVARQHRDAGAPTYMYEFQYRPSFSSDKKPKTVIGDHGDEIFSVFGFPLLKGDAPEEEVSLSKTVMKFWANFARSGNPNGEGLPHWPMYDQEEGYLQIGVNTQAAKRLKGEEVAFWNDLLSKEAAKKPPKIKHAEL
B2: APLE wild-type (enzyme)
chain: B1 chain with D43L
notes: Homotrimer on native gel; also called pig liver esterase
B3: γPLE wild-type (enzyme)
chain: GQPASPPVVDTAQGRVLGKYVSLEGLAQPVAVFLGVPFAKPPLGSLRFAPPQPAEPWSFVKNTTSYPPMCCQDPVVEQMTSDLFTNGKERLTLEFSEDCLYLNIYTPADLTKRGRLPVMVWIHGGGLVLGGAPMYDGVVLAAHENVVVVAIQYRLGIWGFFSTGDEHSRGNWGHLDQVAALHWVQENIANFGGDPGSVTIFGESAGGESVSVLVLSPLAKNLFHRAISESGVALTVALVRKDMKAAAKQIAVLAGCKTTTSAVFVHCLRQKSEDELLDLTLKMKFLTLDFHGDQRESHPFLPTVVDGVLLPKMPEEILAEKDFNTVPYIVGINKQEFGWLLPTMMGFPLSEGKLDQKTATSLLWKSYPIANIPEELTPVATDKYLGGTDDPVKKKDLFLDLMGDVVFGVPSVTVARQHRDAGAPTYMYEFQYRPSFSSDKKPKTVIGDHGDEIFSVFGFPLLKGDAPEEEVSLSKTVMKFWANFARSGNPNGEGLPHWPMYDQEEGYLQIGVNTQAAKRLKGEEVAFWNDLLSKEAAKKPPKIKHAEL
notes: Tested in E. coli cleared lysate; Homotrimer; also called gamma-PLE
B4: PICE with V263D mutation (enzyme)
chain: GQPASPPVVDTAQGRVLGKYVSLEGLAQPVAVFLGVPFAKPPLGSLRFAPPQPAEPWSFVKNTTSYPPMCCQDPVAGQMTSDLFTNGKERLIPEFSEDCLYLNIYTPADLTKRGRLPVMVWIHGGGLVVGGASTYDGLALAAHENVVVVAIQYRLGIWGFFSTGDEHSRGNWGHLDQVAALHWVQENIANFGGDTGSVTIFGESAGGESVSVLVLSPLAKNLFHRAISESGVALTAGLVRKDMKAAAKQIAVLAGCKTTTSADFVHCLRQKSEDELLDLTLKMKFLTLDLHGDPRESHPFLPTVVDGVLLPKMPEEILAEKDFNTVPYIVGINKQEFGWLLPTMMGFPLSEGKLDQKTATSLLWKSFPITNIPEELTPVATDKYLGGTDDPVKKKDLFLDLMGDVVFGVPSVTVARQHRDAGAPTYMYEFQYRPSFSSDKKPKTVIGDHGDEIFSVFGFPLLKGDAPEEEVSLSKTVMKFWANFARSGNPNGEGLPHWPMYDQEEGYLQIGVNTQAAKRLKGEEVAFWNDLLSKEAAKKPPKIKHAEL
notes: Monomeric mutant; also called PICE-V263D
B5: PLE4 with V263D mutation (enzyme)
chain: B4 chain with T195P, L234F, F285P, P302T, F367Y, T370A, F459A, L461F, K463R
notes: Monomeric mutant; also called PLE4-V263D
B6: PLE5 with V263D mutation (enzyme)
chain: B1 chain with D43L, E73D, I75V, G76A, L80T, R87G, V263D, F459A, L461F, K463R
notes: Monomeric mutant; also called PLE5-V263D
B7: PLE3 with V263D mutation (enzyme)
chain: B1 chain with D43L, V263D, F285P, F286L, A287T
notes: Monomeric mutant; also called PLE3-V263D
B8: APLE with V263D mutation (enzyme)
chain: B1 chain with D43L, V263D
notes: Monomeric mutant, tested in E. coli cleared lysate; also called APLE-V263D; mutant, monomeric APLE
B9: γ-PLE with V263D mutation (enzyme)
chain: B3 chain with V263D
notes: Monomeric mutant; also called γPLE-V263D
B10: PLE2 with V263D mutation (enzyme)
chain: B3 chain with V263D, F459A, L461F, K463R
notes: Monomeric mutant; also called PLE2-V263D

One data set concerns the molecule itself. Kind of data set: method not named, self-association.
Regarding B1, the binding result is “no binding”.

A further data set deals with the molecule itself. Description: blue native gel electrophoresis, self-association (homotrimer). The procedure: Blue native gel electrophoresis (BN-PAGE) of bacterial lysates containing APLE was performed according to the method described by Reisinger and Eichacker (2006), “Analysis of membrane protein complexes by blue native PAGE”, Proteomics 6 Suppl 2, 6-15, with the following modifications. Aliquots containing 200 μg of soluble proteins were diluted with 10 mM Tris/HCl pH 7.4 to a final volume of 95 μl. Five μl of loading buffer was added to the sample before applying them on an 8-16% linear gradient gel. Gradient gels (16×20 cm) were created with the help of a Bio-Rad Gradient Former model 485 (Bio-Rad Laboratories, Vienna, Austria). Electrophoresis was performed at a constant current of 24 mA per gel at 4° C. After electrophoresis, gels were incubated in 0.1 M potassium phosphate buffer, pH 7.0, for 20 min at room temperature. For the in-gel-detection of esterase activity, the substrate fluorescein diacetate (FDA) was dissolved in acetone [4 mg/ml] and applied on a Biodyne® A membrane ([…], 16×20 cm) (Pall Life Science, Michigan, USA). After evaporation of acetone, the membrane was brought in close contact with the gel which was placed on a glass plate. […]
Esterase activity was visualized herein through staining with fluorescein resulting from hydrolysis of fluorescein diacetate (FDA). […] Multiple bands were excised and analyzed on an SDS-PAGE gel. […]
As for B2, the binding result is on record as “binds”. On the same count and under the same terms, then B3, with “binds”.

Another data set deals with the molecule itself. Description: blue native gel electrophoresis, self-association. The procedure:
Blue native gel electrophoresis (BN-PAGE) of bacterial lysates containing APLE was performed according to the method described by Reisinger and Eichacker (2006), “Analysis of membrane protein complexes by blue native PAGE”, Proteomics 6 Suppl 2, 6-15, with the following modifications. Aliquots containing 200 μg of soluble proteins were diluted with 10 mM Tris/HCl pH 7.4 to a final volume of 95 μl. Five μl of loading buffer was added to the sample before applying them on an 8-16% linear gradient gel. Gradient gels (16×20 cm) were created with the help of a Bio-Rad Gradient Former model 485 (Bio-Rad Laboratories, Vienna, Austria). Electrophoresis was performed at a constant current of 24 mA per gel at 4° C. After electrophoresis, gels were incubated in 0.1 M potassium phosphate buffer, pH 7.0, for 20 min at room temperature. For the in-gel-detection of esterase activity, the substrate fluorescein diacetate (FDA) was dissolved in acetone [4 mg/ml] and applied on a Biodyne® A membrane ([…], 16×20 cm) (Pall Life Science, Michigan, USA). After evaporation of acetone, the membrane was brought in close contact with the gel which was placed on a glass plate. The gel-membrane sandwich was incubated at 37° C. for 30 min before detection of fluorescent bands.
Esterase activity was visualized herein through staining with fluorescein resulting from hydrolysis of fluorescein diacetate (FDA). All 7 wild-type enzymes are trimers of about the same height on the native gel, whereas the V263D mutants show bands on the lower third of the gel. Multiple bands were excised and analyzed on an SDS-PAGE gel. Multiple bands result in one clear band at the size of about 58 kDa (data not shown). It is assumed that these bands result from different conformations of the same monomer.
Consider B4, for which the binding result is listed as “no binding”. The same measure, in the same setting: the value for B5 was “no binding”; that for B6 was “no binding”. For the protein B7, the binding result was “no binding”. The same measure, in the same setting: then B8, with “no binding”; and B9, with “no binding”. The same measure, in the same setting: then B10, with “no binding”.
